Data taken from patent US20080090770A1, “Modulation of Muc1 Mediated Signal Transduction” (priority 2003, published 2008).

Legend:
[1] = test system: HCT116/MUC1 cells; assay: Apoptosis assay (sub-G1 DNA content) after siRNA transfection and CDDP treatment; type: cell-based, human; details: CDDP 100 μM
Description: (§1) Cell culture and transfection: Human colon cancer HCT116 cells and human non-small lung cancer A549 were grown in Dulbecco's modified Eagle's medium (DMEM) and RPMI1640 medium, respectively, in a humidified 5% CO2 atmosphere at 37° C. Media were supplemented with 10% fetal bovine serum (FBS), 100 units/ml of penicillin and 100 μg/ml of streptomycin. HCT116 cells were transfected with pIRES-puro2 or pIRES-puro2-MUC1 as described (Li et al., 2001(a)) and stable transfectants were selected in the presence of 0.4 μg/ml puromycin (Caliochem-Novabiochem).
(§2) A nonspecific scrambled control siRNA (SCRsiRNA) was also synthesized (targeted sequence: 5′-[…]-3′) (Dharmacon, Inc.). Cells were plated, grown in antibiotic-free medium overnight, and then transiently transfected with siRNAs (0.2-20 nM) using Oligofectamine reagent (Invitrogen Life Technology, Inc.) and Opti-MEM 1 reduced serum medium (Invitrogen Life Technology, Inc.) according to the manufacturer's instructions.
(§3) Apoptosis assay: At 48 hr after siRNA transfection, cells were treated with 0, 10 or 100 μM cisplatin (CDDP, Sigma) for 24 hr to induce apoptosis. Apoptotic cells were quantified by analysis of sub-G1 DNA content. Cells were harvested, washed, with PBS, fixed with 75% ethanol, and incubated in PBS containing 200 μg/ml RNase A (Qiagen) for 15 min at 37° C. […] DNA content was analyzed by flow cytometry (EPICS XL-MCL, Coulter Corp.).

[2] = test system: HCT116/vector cells; assay: as above; type: cell-based, human; details: CDDP 100 μM
Description: as §1, §2, §3

[3] = test system: HCT116 cells transfected with MUC1ΔSANL; assay: Visualization of viable cells after cisplatin in transfected HCT116 cells; type: cell-based, human; details: 100 μM cisplatin, 24 and 48 hr
Description: Human HCT116 colon carcinoma cells (ATCC, Manassas, Va.) were cultured in Dulbecco's modified Eagle's medium/F12 with 10% heat-inactivated fetal bovine serum, 100 units/ml penicillin, […] streptomycin and 2 mM L-glutamine. HCT116 cells were transfected with pIRES-puro2, pIRESpuro2-MUC1 or pIRES-puro2-MUC1ΔSANL (MUC1 with the four carboxyl terminal amino acids […] deleted) as described (Li et al., 2001). Stable transfectants were selected in the presence of 0.4 mg/ml puromycin (Calbiochem-Novabiochem, San Diego, Calif.).
Cells were incubated with 100 μM cisplatin (CDDP; Sigma), for 24 and 48 hr.

[4] = target: T1, Mint-2 d1 (Homo sapiens, UniProt Q99767); assay: TransSignal PDZ Domain Array: binding of His-tagged MUC1/CD to immobilized PDZ domain, without or with 7-mer peptide
T1 construct: Mint-2 d1(XIIL protein, PDZ domain #1); purchased Panomics Inc
T1 sequence (Q99767 568-654 limits assumed): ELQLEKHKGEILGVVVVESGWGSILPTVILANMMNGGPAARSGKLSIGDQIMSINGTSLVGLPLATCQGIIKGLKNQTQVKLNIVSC
Description: (§4) The ability of the MUC1 cytoplasmic domain (CD) to interact with a panel of 28 human PDZ domain proteins was screened. A His-tagged MUC1/CD was produced to affect the screening. The CD of MUC1 was amplified by RT-PCR from cDNA derived from human breast cancer MCF7 cells. The MUC1/CD gene was cloned into a bacterial vector pEXP (Panomics Inc.) to generate a His-tagged fusion protein (pEXP/MUC1/CD). DH5α E. Coli cells were transformed with pEXP/MUC1/CD and incubated overnight in 1 ml of LB medium containing 100 μg/ml ampicillin (LB/AMP). Eighty μl of the overnight culture was transferred to a tube of 4 ml of LB/AMP and allowed to grow until an OD600 of approximately 0.5-0.8 was evident. IPTG was added to the culture at a final concentration of 0.5 mM to induce expression of the His-tagged MUC1/CD protein. After 4 hours, cells were harvested in 1× resuspension buffer (Panomics Inc.) and lysed by sonication. The lysate was centrifuged at 14000 rpm for 5 minutes at 4° C. The resulting supernatant (bacterial extract) was collected and stored at −80° C. until use.
(§5) The TransSignal PDZ Domain Array kit (Panomics Inc.) was used comprising membranes on which the following 28 human PDZ proteins had been immobilized: MINT-2 d1, Mint-3 d1, Mint-3 d2, Mint-1 d1, Mint1 d2, CSKP, Dlg d1, Dlg1 d3, Dlg2 d2, Dlg4 d3, DVL1, DVL3, DVLL, GIPC, HtrA2, LIMK2, MPP2, NEB1, OMP25, hCLIM1, PTPH1, ZO-2 d1, hPTP1E d1, hPTP1E d5, RGS12, RIL, ZO-1 d3 and ZO-2 d3.
(§6) Membranes were submerged in a small tray with 20 ml of x1 blocking buffer (Panomics Inc.), and shaken at room temperature for 1 hour. The blocking buffer was removed and membranes rinsed twice with x1 Wash Buffer (Panomics inc.) at room temperature. The bacterial extract was diluted to a final concentration of 0.1 mg/ml in 20 ml Resuspension Buffer (Panomics Inc.). The membrane was incubated with the dilute bacterial extract overnight at 4° C. with gentle shaking. After incubation, the membrane was washed three times with 40 ml 1× Wash Buffer at room temperature for 10 minutes each wash. The membrane was then incubated with 20 ml diluted Anti-Histidine HRP Conjugate (Panomics inc., 1:3000 dilution in 1× Wash Buffer) at room temperature for 1 hour. The membrane was then washed with 40 ml 1× Wash Buffer at room temperature for 10 minutes each wash. The membrane was then visualized using […] ECL (Amersham Biosciences) utilizing the Detection Buffers as supplied by Panomics.
(§7) His-tagged MUC1/CD (bacterial extract) was incubated in the absence or presence of a 20-fold molar excess of the 7-mer peptide AAASANL (SEQ ID NO: 133) with the appropriate membrane-immobilized PDZ domain, as described above in Example 4.

[5] = target: T2, RIL (Homo sapiens, UniProt P50479); assay: as above
T2 construct: purchased Panomics Inc
T2 sequence (P50479 1-84 limits assumed): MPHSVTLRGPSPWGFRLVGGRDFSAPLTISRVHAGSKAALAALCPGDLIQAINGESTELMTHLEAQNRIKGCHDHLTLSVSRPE
Description: as §4, §5, §6, §7

[6] = target: T3, HtrA2 (Homo sapiens, UniProt O43464); assay: as above
T3 construct: purchased Panomics Inc
T3 sequence (O43464 364-445 limits assumed): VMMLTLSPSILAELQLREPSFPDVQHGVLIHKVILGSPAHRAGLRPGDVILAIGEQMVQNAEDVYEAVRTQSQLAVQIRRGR
Description: as §4, §5, §6, §7

[7] = target: T4, PTPH1 (Homo sapiens, UniProt P26045); assay: as above
T4 construct: purchased Panomics Inc
T4 sequence (P26045 510-582 limits assumed): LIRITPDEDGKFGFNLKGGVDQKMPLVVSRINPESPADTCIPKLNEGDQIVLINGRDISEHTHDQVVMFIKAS
Description: as §4, §5, §6, §7

[8] = target: T5, Mint-1 d2 (Homo sapiens, UniProt Q02410); assay: as above
T5 construct: Mint-1 d2 (XII protein, PDZ domain #2); purchased Panomics Inc
T5 sequence (Q02410 747-822 limits assumed): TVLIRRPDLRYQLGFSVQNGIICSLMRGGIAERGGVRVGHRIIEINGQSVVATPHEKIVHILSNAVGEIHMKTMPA
Description: as §4, §5, §6, §7

[9] = target: T6, OMP25 (Homo sapiens, UniProt P57105); assay: TransSignal PDZ Domain Array: binding of His-tagged MUC1/CD to immobilized PDZ domain; details: bacterial extract 0.1 mg/ml, panel of 28 PDZ proteins
T6 construct: The TransSignal PDZ Domain Array kit (Panomics Inc.) was used; purchased Panomics Inc
T6 sequence (P57105 13-100 limits assumed): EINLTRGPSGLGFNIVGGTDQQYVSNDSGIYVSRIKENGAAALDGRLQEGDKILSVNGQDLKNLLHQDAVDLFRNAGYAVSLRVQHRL
Description: as §4, with “use. […]” for “use.”

[10] = test system: PDZ domains; assay: Modified ELISA: profile (matrix) screen of biotinylated peptide against individual GST-PDZ domain fusion proteins; type: binding, human
Text: Profile Results Peptides corresponding to the C-terminus were able to bind a number of PDZ domains in a concentration dependent manner. […] Identities of the interacting PDZ domains are listed directly above or next to the bar representing the absorbance in the assay.
The results, shown in FIGS. 11, 12 and 13, represent the absorbance and standard deviation of interactions of higher relative strength. The data in FIG. 13 for PDZK1, PTPL1 d5, MUPP1 d4 and INADL d1 have high standard deviations and thus require further verification to validate intensity of binding.

[11] = target: T7, biotinylated TAT-MUC1 binding to ZO1 d2 (Homo sapiens, UniProt Q07157); assay: Modified ELISA: competition with binding of biotinylated TAT-MUC1 peptide (SEQ ID NO: 134) to PDZ domain
T7 construct: made in house; host or cells: E. coli
T7 sequence (Q07157 186-264 limits assumed): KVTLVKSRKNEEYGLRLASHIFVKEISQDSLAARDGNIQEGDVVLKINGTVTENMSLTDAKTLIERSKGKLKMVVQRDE

[12] = target: T8, biotinylated TAT-MUC1 binding to RIM2 (Homo sapiens, UniProt Q9UQ26); assay: as above; details: FIG. 10, among three peptides
T8 construct: RIM2, PDZ domain 1: GI#: 12734165; made in house; host or cells: E. coli
T8 sequence (Q9UQ26 668-754 limits assumed): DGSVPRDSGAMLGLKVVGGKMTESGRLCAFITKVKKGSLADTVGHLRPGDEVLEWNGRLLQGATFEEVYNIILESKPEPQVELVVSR

[13] = bacterial extract 0.1 mg/ml, panel of 28 PDZ proteins

[NH2][Pt]([NH2])([Cl])[Cl] [CDDP, cisplatin]
Sensitivity of cells to apoptosis induced by CDDP [1]: relatively resistant to apoptosis
Sensitivity of cells to apoptosis induced by CDDP [2]: sensitive to apoptosis
Sensitivity to CDDP-induced cell death relative to cells transfected with full length MUC1 [3]: substantially increase in the sensitivity to CDDP-induced cell death

AAASANL [7-mer peptide]
Inhibition of binding of his-tagged MUC1/CD to PDZ domain ([4]; 20-fold molar excess of 7-mer): inhibited the binding
Inhibition of binding of his-tagged MUC1/CD to PDZ domain ([5]; 20-fold molar excess of 7-mer): inhibited the binding
Inhibition of binding of his-tagged MUC1/CD to PDZ domain ([6]; 20-fold molar excess of 7-mer): inhibited the binding
Inhibition of binding of his-tagged MUC1/CD to PDZ domain ([7]; 20-fold molar excess of 7-mer): inhibited the binding
Inhibition of binding of his-tagged MUC1/CD to PDZ domain ([8]; 20-fold molar excess of 7-mer): inhibited the binding

MUC1/CD: His-tagged fusion protein of the MUC1 cytoplasmic domain, used as bacterial extract
Binding of his-tagged MUC1/CD to PDZ domain [9]: Binding was observed
Binding of his-tagged MUC1/CD to PDZ domain [4, 13]: Binding was observed
Binding of his-tagged MUC1/CD to PDZ domain [5, 13]: Binding was observed
Binding of his-tagged MUC1/CD to PDZ domain [6, 13]: Binding was observed
Binding of his-tagged MUC1/CD to PDZ domain [7, 13]: Binding was observed
Binding of his-tagged MUC1/CD to PDZ domain [8, 13]: Binding was observed

NGGSSLSYTNPAVAATSANL [MUC1 peptide]
Interactions with higher absorbance readings in PDZ profile ([10]; MUC1 peptide concentration 0.01 μm, FIG. 3): seven interactions are observed to give higher absorbance readings
Interactions with higher absorbance readings in PDZ profile ([10]; MUC1 peptide concentration 0.1 μm, FIG. 4): more interactions are observed

YGRKKRRQRRRARGDRKRIV [SEQ ID NO: 136]
Competition for binding of biotinylated SEQ ID NO: 134 (TAT-MUC1) [11]: can also compete for binding
Competitive inhibition of biotinylated SEQ ID NO: 134 (TAT-MUC1) binding [12]: best competitive inhibitor
